This experiment has as its target HLA-B*07 (Homo sapiens, UniProt P01889). The experiment in a line: MHC binding assay (UV-ligand exchange, β2m ELISA). The source says:
Candidate peptides for T cell based therapies according to the present invention were further tested for their MHC binding capacity (affinity). The individual peptide-MHC complexes were produced by UV-ligand exchange, where a UV-sensitive peptide is cleaved upon UV-irradiation, and exchanged with the peptide of interest as analyzed. Only peptide candidates that can effectively bind and stabilize the peptide-receptive MHC molecules prevent dissociation of the MHC complexes. To determine the yield of the exchange reaction, an ELISA was performed based on the detection of the light chain (β2m) of stabilized MHC complexes. The assay was performed as generally described in Rodenko et al. (Rodenko et al., 2006).
96 well MAXISorp plates (NUNC) were coated over night with 2 ug/ml streptavidin in PBS at room temperature, washed 4× and blocked for 1 h at 37° C. in 2% BSA containing blocking buffer. […] Peptide-MHC monomers of the UV-exchange reaction were diluted 100-fold in blocking buffer. Samples were incubated for 1 h at 37° C., washed four times, incubated with 2 ug/ml HRP conjugated anti-β2m for 1h at 37° C., washed again and detected with TMB solution that is stopped with […]. Absorption was measured at 450 nm. Candidate peptides that show a high exchange yield (preferably higher than 50%, most preferred higher than 75%) are generally preferred for a generation and production of antibodies or fragments thereof, and/or T cell receptors or fragments thereof, as they show sufficient avidity to the MHC molecules and prevent dissociation of the MHC complexes.
In general terms: In an ELISA, binding on a coated surface is turned into a signal by an enzyme label.

With “265 (SPRQPPRLV; listed as Homo sapiens) [compound 265]”, the “Peptide exchange (peptide exchange yield, MHC class I binding score)” value (from here on “Peptide exchange”) is listed as ““++++” (>75% = ++++)”.

As to “267 (HPELVNHIVF; listed as Homo sapiens) [compound 267]”, the “Peptide exchange” value was ““++” (>20% = ++)”.

As to “268 (YPLFRGINL; listed as Homo sapiens) [compound 268]”, the “Peptide exchange” value is listed as ““++++” (>75% = ++++)”.

For the substance “269 (APRAPRLML; listed as Homo sapiens) [compound 269]”, the “Peptide exchange” value is ““++++” (>75% = ++++)”.

Turning to “270 (APGPRFLVT; listed as Homo sapiens) [compound 270]”, the “Peptide exchange” value was ““++++” (>75% = ++++)”.

Regarding “271 (MPLPWSLALP; listed as Homo sapiens) [compound 271]”, the “Peptide exchange” value was ““+++” (>50 = +++)”.

For the substance “272 (MPLPWSLALPL; listed as Homo sapiens) [compound 272]”, the “Peptide exchange” value was ““++++” (>75% = ++++)”.

For “273 (MPLLWLRGF; listed as Homo sapiens) [compound 273]”, the “Peptide exchange” value is given as ““++” (>20% = ++)”.

“275 (APHPPLSVV; listed as Homo sapiens) [compound 275]”: the “Peptide exchange” value is ““+++” (>50 = +++)”.

For the substance “276 (LPRAGGAFL; listed as Homo sapiens) [compound 276]”, the “Peptide exchange” value is ““+++” (>50 = +++)”.

“278 (HPMIDINGIIVF; listed as Homo sapiens) [compound 278]”: the “Peptide exchange” value is reported as ““++” (>20% = ++)”.

For the substance “279 (SPARASPAL; listed as Homo sapiens) [compound 279]”, the “Peptide exchange” value is ““+++” (>50 = +++)”.

As for “280 (VPISEEGTPVL; listed as Homo sapiens) [compound 280]”, the “Peptide exchange” value is ““+++” (>50 = +++)”.

Take “281 (RPRAPVTPA; listed as Homo sapiens) [compound 281]”: the “Peptide exchange” value is reported as ““++++” (>75% = ++++)”.

With “282 (MPQIETRVIL; listed as Homo sapiens) [compound 282]”, the “Peptide exchange” value is ““+++” (>50 = +++)”.

As to “283 (RPHSLSSEL; listed as Homo sapiens) [compound 283]”, the “Peptide exchange” value was ““++++” (>75% = ++++)”.

As to “284 (FPVTSIFHTF; listed as Homo sapiens) [compound 284]”, the “Peptide exchange” value is listed as ““++” (>20% = ++)”.

As to “286 (VPTLRSEL; listed as Homo sapiens) [compound 286]”, the “Peptide exchange” value is ““++++” (>75% = ++++)”.

For the substance “287 (APREEQQRSL; listed as Homo sapiens) [compound 287]”, the “Peptide exchange” value is ““+++” (>50 = +++)”.

Take “288 (FPQKFIDLL; listed as Homo sapiens) [compound 288]”: the “Peptide exchange” value is reported as ““++” (>20% = ++)”.

Consider “289 (VPENHSVAL; listed as Homo sapiens) [compound 289]”, for which the “Peptide exchange” value is ““++++” (>75% = ++++)”.

“290 (APYRPPDISL; listed as Homo sapiens) [compound 290]”: the “Peptide exchange” value is listed as ““++++” (>75% = ++++)”.

With “291 (SPQRLRGLL; listed as Homo sapiens) [compound 291]”, the “Peptide exchange” value was ““++++” (>75% = ++++)”.

Regarding “295 (KPEGTRIAV; listed as Homo sapiens) [compound 295]”, the “Peptide exchange” value is reported as ““++++” (>75% = ++++)”.

As to “459 (RPMQQARAQL; listed as Homo sapiens) [compound 459]”, the “Peptide exchange” value is listed as ““+++” (>50 = +++)”.

The values above are taken from patent US11292821B2, “Peptides and combination of peptides for use in immunotherapy against lung cancer, including NSCLC, SCLC and other cancers” (Immatics Biotechnologies GmbH, priority 2017, dated 2022).
